Numbered stars: 1 amine (or outer) side, 2 acyl side, 3 side chain; on linkers, the order of the positions; unused ones are H or OH. Bridge positions count the residues as written; N and C are the ends. Side chains are listed from the residue outwards. Ends that are not written are not given here. * marks the point of attachment. C20 diacid = O=C(O)CCCCCCCCCCCCCCCCCCC(=O)*; γGlu = O=C(O)[C@H](CCC(=O)[*:2])N[*:1]
T1: rat amylin receptor (rat calcitonin receptor + rat RAMP 3) (rat, UniProt P32214 25-516; Q9JJ73 23-147)
T1 construct: whole, on cells; Membranes of transiently transfected BHK tk'ts 13 cells (Assay VI); also called rAmylin-R; rat amylin 3(a) receptor
T1 sequence (looked up) 1: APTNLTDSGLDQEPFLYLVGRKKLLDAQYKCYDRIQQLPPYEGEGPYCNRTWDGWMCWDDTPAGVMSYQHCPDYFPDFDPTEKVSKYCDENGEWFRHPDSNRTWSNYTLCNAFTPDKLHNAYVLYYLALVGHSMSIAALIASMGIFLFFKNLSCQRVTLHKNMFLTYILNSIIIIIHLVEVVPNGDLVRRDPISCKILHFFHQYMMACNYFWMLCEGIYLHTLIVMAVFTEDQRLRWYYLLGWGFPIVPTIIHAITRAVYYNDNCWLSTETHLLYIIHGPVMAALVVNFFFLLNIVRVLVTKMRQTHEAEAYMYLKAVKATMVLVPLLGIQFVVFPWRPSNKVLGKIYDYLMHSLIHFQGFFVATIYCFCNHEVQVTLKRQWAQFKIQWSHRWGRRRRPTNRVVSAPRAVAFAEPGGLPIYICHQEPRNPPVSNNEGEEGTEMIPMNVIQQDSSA
T1 sequence (looked up) 2: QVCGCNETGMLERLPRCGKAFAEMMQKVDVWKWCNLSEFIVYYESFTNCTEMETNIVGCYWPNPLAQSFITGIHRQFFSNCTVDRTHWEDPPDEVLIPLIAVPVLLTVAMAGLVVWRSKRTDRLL

T2: human calcitonin receptor (human, UniProt P30988 25-474)
T2 construct: whole, on cells; Membranes of a stably transfected BHK cell line (Assay VII); also called hCTR; hCT
T2 sequence (looked up): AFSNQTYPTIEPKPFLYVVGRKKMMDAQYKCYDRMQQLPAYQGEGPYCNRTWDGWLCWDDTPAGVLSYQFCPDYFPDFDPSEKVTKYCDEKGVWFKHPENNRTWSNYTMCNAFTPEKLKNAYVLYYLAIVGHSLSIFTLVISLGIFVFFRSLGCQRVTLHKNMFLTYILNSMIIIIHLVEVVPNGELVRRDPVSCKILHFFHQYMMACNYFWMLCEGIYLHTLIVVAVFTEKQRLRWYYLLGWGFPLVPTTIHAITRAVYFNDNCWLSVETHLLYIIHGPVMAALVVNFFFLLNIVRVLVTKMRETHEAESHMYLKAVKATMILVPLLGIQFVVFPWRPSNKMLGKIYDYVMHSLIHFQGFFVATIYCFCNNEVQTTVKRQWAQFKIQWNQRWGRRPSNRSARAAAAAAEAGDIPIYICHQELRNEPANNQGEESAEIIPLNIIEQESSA

T3: rat calcitonin receptor (rat, UniProt P32214 25-516)
T3 construct: whole, on cells; Membranes of transiently transfected BHK tk'ts 13 cells (Assay VIII); also called rCTR
T3 sequence (looked up): T1 sequence (looked up) 1

B1: N^ε1-[(4S)-4-carboxy-4-[[(4S)-4-carboxy-4-(19-carboxynonadecanoylamino)butanoyl]amino]butanoyl]-[Glu14,Arg17,Pro21,Pro27,Arg35]-h-amylin (peptide)
peptide: K([γGlu-γGlu-C20 diacid])CNTATCATQRLAEFLRHSSPNFGAIPSSTNVGSRTY-NH2
modifications: disulfide 2-7; N-terminus assumed
SMILES: CC[C@H](C)[C@H](NC(=O)[C@H](C)NC(=O)CNC(=O)[C@H](Cc1ccccc1)NC(=O)[C@H](CC(N)=O)NC(=O)[C@@H]1CCCN1C(=O)[C@H](CO)NC(=O)[C@H](CO)NC(=O)[C@H](Cc1c[nH]cn1)NC(=O)[C@H](CCCNC(=N)N)NC(=O)[C@H](CC(C)C)NC(=O)[C@H](Cc1ccccc1)NC(=O)[C@H](CCC(=O)O)NC(=O)[C@H](C)NC(=O)[C@H](CC(C)C)NC(=O)[C@H](CCCNC(=N)N)NC(=O)[C@H](CCC(N)=O)NC(=O)[C@@H](NC(=O)[C@H](C)NC(=O)[C@@H]1CSSC[C@H](NC(=O)[C@@H](N)CCCCNC(=O)CC[C@H](NC(=O)CC[C@H](NC(=O)CCCCCCCCCCCCCCCCCCC(=O)O)C(=O)O)C(=O)O)C(=O)N[C@@H](CC(N)=O)C(=O)N[C@@H]([C@@H](C)O)C(=O)N[C@@H](C)C(=O)N[C@@H]([C@@H](C)O)C(=O)N1)[C@@H](C)O)C(=O)N1CCC[C@H]1C(=O)N[C@@H](CO)C(=O)N[C@@H](CO)C(=O)N[C@H](C(=O)N[C@@H](CC(N)=O)C(=O)N[C@H](C(=O)NCC(=O)N[C@@H](CO)C(=O)N[C@@H](CCCNC(=N)N)C(=O)N[C@H](C(=O)N[C@@H](Cc1ccc(O)cc1)C(N)=O)[C@@H](C)O)C(C)C)[C@@H](C)O
notes: also called compound 89
B2: N^ε1-[(4S)-4-carboxy-4-[[(4S)-4-carboxy-4-(19-carboxynonadecanoylamino)butanoyl]amino]butanoyl]-[Glu14,Arg17,Pro21,Pro31,Pro34,Glu35]-h-amylin (peptide)
peptide: K([γGlu-γGlu-C20 diacid])CNTATCATQRLAEFLRHSSPNFGAILSSTPVGPETY-NH2
modifications: disulfide 2-7 (inferred)
B3: N^ε1-[(4S)-4-carboxy-4-[[(4S)-4-carboxy-4-(19-carboxynonadecanoylamino)butanoyl]amino]butanoyl]-[Glu14,Arg17,Pro21,Pro27,Pro34,Arg35]-h-amylin (peptide)
peptide: K([γGlu-γGlu-C20 diacid])CNTATCATQRLAEFLRHSSPNFGAIPSSTNVGPRTY-NH2
modifications: disulfide 2-7; N-terminus assumed
SMILES: CC[C@H](C)[C@H](NC(=O)[C@H](C)NC(=O)CNC(=O)[C@H](Cc1ccccc1)NC(=O)[C@H](CC(N)=O)NC(=O)[C@@H]1CCCN1C(=O)[C@H](CO)NC(=O)[C@H](CO)NC(=O)[C@H](Cc1c[nH]cn1)NC(=O)[C@H](CCCNC(=N)N)NC(=O)[C@H](CC(C)C)NC(=O)[C@H](Cc1ccccc1)NC(=O)[C@H](CCC(=O)O)NC(=O)[C@H](C)NC(=O)[C@H](CC(C)C)NC(=O)[C@H](CCCNC(=N)N)NC(=O)[C@H](CCC(N)=O)NC(=O)[C@@H](NC(=O)[C@H](C)NC(=O)[C@@H]1CSSC[C@H](NC(=O)[C@@H](N)CCCCNC(=O)CC[C@H](NC(=O)CC[C@H](NC(=O)CCCCCCCCCCCCCCCCCCC(=O)O)C(=O)O)C(=O)O)C(=O)N[C@@H](CC(N)=O)C(=O)N[C@@H]([C@@H](C)O)C(=O)N[C@@H](C)C(=O)N[C@@H]([C@@H](C)O)C(=O)N1)[C@@H](C)O)C(=O)N1CCC[C@H]1C(=O)N[C@@H](CO)C(=O)N[C@@H](CO)C(=O)N[C@H](C(=O)N[C@@H](CC(N)=O)C(=O)N[C@H](C(=O)NCC(=O)N1CCC[C@H]1C(=O)N[C@@H](CCCNC(=N)N)C(=O)N[C@H](C(=O)N[C@@H](Cc1ccc(O)cc1)C(N)=O)[C@@H](C)O)C(C)C)[C@@H](C)O
notes: also called compound 110
B4: N^ε1-[(4S)-4-carboxy-4-[[(4S)-4-carboxy-4-(19-carboxynonadecanoylamino)butanoyl]amino]butanoyl]-[Glu14,Arg17,Pro21,Pro27,Pro34,Glu35]-h-amylin (peptide)
peptide: K([γGlu-γGlu-C20 diacid])CNTATCATQRLAEFLRHSSPNFGAIPSSTNVGPETY-NH2
modifications: disulfide 2-7; N-terminus assumed
SMILES: CC[C@H](C)[C@H](NC(=O)[C@H](C)NC(=O)CNC(=O)[C@H](Cc1ccccc1)NC(=O)[C@H](CC(N)=O)NC(=O)[C@@H]1CCCN1C(=O)[C@H](CO)NC(=O)[C@H](CO)NC(=O)[C@H](Cc1c[nH]cn1)NC(=O)[C@H](CCCNC(=N)N)NC(=O)[C@H](CC(C)C)NC(=O)[C@H](Cc1ccccc1)NC(=O)[C@H](CCC(=O)O)NC(=O)[C@H](C)NC(=O)[C@H](CC(C)C)NC(=O)[C@H](CCCNC(=N)N)NC(=O)[C@H](CCC(N)=O)NC(=O)[C@@H](NC(=O)[C@H](C)NC(=O)[C@@H]1CSSC[C@H](NC(=O)[C@@H](N)CCCCNC(=O)CC[C@H](NC(=O)CC[C@H](NC(=O)CCCCCCCCCCCCCCCCCCC(=O)O)C(=O)O)C(=O)O)C(=O)N[C@@H](CC(N)=O)C(=O)N[C@@H]([C@@H](C)O)C(=O)N[C@@H](C)C(=O)N[C@@H]([C@@H](C)O)C(=O)N1)[C@@H](C)O)C(=O)N1CCC[C@H]1C(=O)N[C@@H](CO)C(=O)N[C@@H](CO)C(=O)N[C@H](C(=O)N[C@@H](CC(N)=O)C(=O)N[C@H](C(=O)NCC(=O)N1CCC[C@H]1C(=O)N[C@@H](CCC(=O)O)C(=O)N[C@H](C(=O)N[C@@H](Cc1ccc(O)cc1)C(N)=O)[C@@H](C)O)C(C)C)[C@@H](C)O
B5: N^ε1-[(4S)-4-carboxy-4-[[(4S)-4-carboxy-4-(19-carboxynonadecanoylamino)butanoyl]amino]butanoyl]-[Glu14,Arg17,Pro21,Pro27,His34,Glu35]-h-amylin (peptide)
peptide: K([γGlu-γGlu-C20 diacid])CNTATCATQRLAEFLRHSSPNFGAIPSSTNVGHETY-NH2
modifications: disulfide 2-7; N-terminus assumed
SMILES: CC[C@H](C)[C@H](NC(=O)[C@H](C)NC(=O)CNC(=O)[C@H](Cc1ccccc1)NC(=O)[C@H](CC(N)=O)NC(=O)[C@@H]1CCCN1C(=O)[C@H](CO)NC(=O)[C@H](CO)NC(=O)[C@H](Cc1c[nH]cn1)NC(=O)[C@H](CCCNC(=N)N)NC(=O)[C@H](CC(C)C)NC(=O)[C@H](Cc1ccccc1)NC(=O)[C@H](CCC(=O)O)NC(=O)[C@H](C)NC(=O)[C@H](CC(C)C)NC(=O)[C@H](CCCNC(=N)N)NC(=O)[C@H](CCC(N)=O)NC(=O)[C@@H](NC(=O)[C@H](C)NC(=O)[C@@H]1CSSC[C@H](NC(=O)[C@@H](N)CCCCNC(=O)CC[C@H](NC(=O)CC[C@H](NC(=O)CCCCCCCCCCCCCCCCCCC(=O)O)C(=O)O)C(=O)O)C(=O)N[C@@H](CC(N)=O)C(=O)N[C@@H]([C@@H](C)O)C(=O)N[C@@H](C)C(=O)N[C@@H]([C@@H](C)O)C(=O)N1)[C@@H](C)O)C(=O)N1CCC[C@H]1C(=O)N[C@@H](CO)C(=O)N[C@@H](CO)C(=O)N[C@H](C(=O)N[C@@H](CC(N)=O)C(=O)N[C@H](C(=O)NCC(=O)N[C@@H](Cc1c[nH]cn1)C(=O)N[C@@H](CCC(=O)O)C(=O)N[C@H](C(=O)N[C@@H](Cc1ccc(O)cc1)C(N)=O)[C@@H](C)O)C(C)C)[C@@H](C)O

Target: T1, rat amylin receptor (rat calcitonin …)
Assay: SPA competition with 125I-rat amylin, membranes of BHK cells with rat calcitonin receptor + rat RAMP3 (Assay VI)

| IC50 | Binder |
| --- | --- |
| 2.37 nM | B1 |
| 0.449 nM | B2 |
| 0.339 nM | B3 |
| 0.182 nM | B4 |
| 3.14 nM | B5 |

Target: T2, human calcitonin receptor
Assay: ratio IC50 human calcitonin receptor / IC50 human amylin receptor (reference)
Outline: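 IC₅₀ values were derived by one-site competition analysis of SPA counts. Cell membranes (35 ng/μL) with SPA beads were incubated with test compounds for 120 min at 25° C in Hepes buffer, pH 7.4, containing CaCl2, MgCl₂, OA and Tween20.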

| Ratio hCT/hAmylin binding | Binder |
| --- | --- |
| 28 | B1 |
| 22.6 | B2 |
| 53.6 | B3 |
| 17.6 | B4 |
| 29.1 | B5 |

Target: T3, rat calcitonin receptor
Assay: SPA competition with 125I-calcitonin, membranes of BHK cells with rat calcitonin receptor (Assay VIII)

| IC50 | Binder |
| --- | --- |
| 115 nM | B1 |
| 33.5 nM | B2 |
| 38.3 nM | B3 |
| 16.1 nM | B4 |
| 498 nM | B5 |

Target: T3, rat calcitonin receptor
Assay: ratio IC50 rat calcitonin receptor / IC50 rat amylin receptor (reference)

| Ratio rCT/rAmylin binding | Binder |
| --- | --- |
| 48.8 | B1 |
| 74.7 | B2 |
| 113 | B3 |
| 88.5 | B4 |
| 159 | B5 |

Source: patent US20140087995A1 (published 2014)
